Patent US20090215686A1

Target: Met on MDCK (Madin-Darby canine kidney) cells (canine) (UniProt Q75ZY9)
Experiment: cell-based or functional assay

Row | Substance | concentration at which agonistic activity is seen (MDCK colony scatter)
1 | NK1 version of the receptor-binding mutant K1N (E159A:S161A:E195A:R197A:Y198A) (from UniProt P14210 28-209) (ligand) | 100 nM
2 | NK1 version of the receptor-binding mutant K1M (E195A:R197A:Y198A) (from UniProt P14210 28-209) (ligand) | > 10 nM
